Literature values as cited in paper PMC9694239.

Target: CNG channel beta subunit CaM1 peptide CaM1 (Homo sapiens) (UniProt Q14028)
Sequence (Q14028 whole entry, looked up, tested part not stated): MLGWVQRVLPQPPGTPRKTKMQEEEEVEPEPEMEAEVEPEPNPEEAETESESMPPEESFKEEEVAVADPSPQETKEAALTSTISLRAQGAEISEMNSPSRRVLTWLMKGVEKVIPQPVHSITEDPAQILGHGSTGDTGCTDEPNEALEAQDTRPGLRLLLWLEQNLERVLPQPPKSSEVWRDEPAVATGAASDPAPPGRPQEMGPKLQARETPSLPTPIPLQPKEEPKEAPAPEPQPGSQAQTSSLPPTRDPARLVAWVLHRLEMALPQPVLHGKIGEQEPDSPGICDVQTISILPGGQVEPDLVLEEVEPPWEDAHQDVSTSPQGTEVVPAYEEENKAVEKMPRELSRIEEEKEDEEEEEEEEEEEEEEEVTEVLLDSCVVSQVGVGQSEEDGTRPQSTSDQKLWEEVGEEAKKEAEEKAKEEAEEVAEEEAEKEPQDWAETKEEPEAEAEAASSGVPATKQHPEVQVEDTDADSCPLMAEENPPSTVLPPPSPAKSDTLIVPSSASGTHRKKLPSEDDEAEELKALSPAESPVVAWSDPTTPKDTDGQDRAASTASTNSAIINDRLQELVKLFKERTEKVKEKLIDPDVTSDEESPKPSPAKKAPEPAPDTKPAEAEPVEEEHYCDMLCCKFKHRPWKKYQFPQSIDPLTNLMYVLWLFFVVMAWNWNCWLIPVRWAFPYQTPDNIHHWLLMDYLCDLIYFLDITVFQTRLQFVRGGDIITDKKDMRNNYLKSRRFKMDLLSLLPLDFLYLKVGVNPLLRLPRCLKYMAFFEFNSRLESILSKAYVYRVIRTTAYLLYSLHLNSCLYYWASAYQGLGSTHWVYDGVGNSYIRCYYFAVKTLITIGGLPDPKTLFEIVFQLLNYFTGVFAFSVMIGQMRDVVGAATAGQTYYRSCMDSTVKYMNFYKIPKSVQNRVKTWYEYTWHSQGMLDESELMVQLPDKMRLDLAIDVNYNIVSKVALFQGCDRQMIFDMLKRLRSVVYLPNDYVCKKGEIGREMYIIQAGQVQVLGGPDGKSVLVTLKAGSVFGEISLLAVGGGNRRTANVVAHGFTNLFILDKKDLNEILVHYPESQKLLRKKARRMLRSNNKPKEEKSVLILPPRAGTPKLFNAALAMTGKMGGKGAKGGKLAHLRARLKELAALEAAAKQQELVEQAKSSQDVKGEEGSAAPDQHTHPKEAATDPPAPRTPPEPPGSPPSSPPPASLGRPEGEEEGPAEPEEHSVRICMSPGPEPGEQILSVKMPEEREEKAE

Kd: 5 µM
Substance: Calmodulin N-lobe (from UniProt P0DP23)
